The values below come from patent US20110047631A1 (MEDICAL COLLEGE OF GEORGIA RESEARCH INSTITUTE, published 2011).

The experiment concerns the target T1, purified wild-type tau441 (UniProt P10636-8 1-441).
T1 construct: The 441-residue isoform, not the canonical UniProt entry length; Used at 2 uM; also called purified tau 441; purified tau
In words: purified wild-type tau441 and purified Hsp110 incubated together, immunoprecipitation, immunoblot. The protocol: As the data in FIG. 6 indicates, Hsp110 is present in tau immunocomplexes; however, it is not clear whether the interaction is direct or indirect. In order to determine whether Hsp110 interacts with tau directly, we incubated purified wild-type tau441 and Hsp110 and subjected them to immunoprecipitation analyses.
For orientation: A western blot detects proteins with antibodies after separation by electrophoresis.

T1 sequence (P10636 other isoform, or with tags, fused parts or gaps limits assumed): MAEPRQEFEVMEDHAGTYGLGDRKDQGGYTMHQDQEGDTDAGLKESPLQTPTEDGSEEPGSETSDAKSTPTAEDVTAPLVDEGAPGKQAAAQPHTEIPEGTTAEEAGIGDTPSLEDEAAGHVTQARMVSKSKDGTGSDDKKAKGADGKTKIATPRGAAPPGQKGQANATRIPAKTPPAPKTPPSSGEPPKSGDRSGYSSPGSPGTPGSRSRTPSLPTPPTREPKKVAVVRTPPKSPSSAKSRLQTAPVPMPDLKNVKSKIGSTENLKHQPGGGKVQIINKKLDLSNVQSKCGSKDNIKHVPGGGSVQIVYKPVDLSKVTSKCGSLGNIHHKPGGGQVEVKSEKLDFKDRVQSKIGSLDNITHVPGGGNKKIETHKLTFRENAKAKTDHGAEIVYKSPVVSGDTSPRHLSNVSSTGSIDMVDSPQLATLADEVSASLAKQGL

B1: purified full-length Hsp110 (human) (other, UniProt Q92598 2-858, looked up)
chain: SVVGLDVGSQSCYIAVARAGGIETIANEFSDRCTPSVISFGSKNRTIGVAAKNQQITHANNTVSNFKRFHGRAFNDPFIQKEKENLSYDLVPLKNGGVGIKVMYMGEEHLFSVEQITAMLLTKLKETAENSLKKPVTDCVISVPSFFTDAERRSVLDAAQIVGLNCLRLMNDMTAVALNYGIYKQDLPSLDEKPRIVVFVDMGHSAFQVSACAFNKGKLKVLGTAFDPFLGGKNFDEKLVEHFCAEFKTKYKLDAKSKIRALLRLYQECEKLKKLMSSNSTDLPLNIECFMNDKDVSGKMNRSQFEELCAELLQKIEVPLYSLLEQTHLKVEDVSAVEIVGGATRIPAVKERIAKFFGKDISTTLNADEAVARGCALQCAILSPAFKVREFSVTDAVPFPISLIWNHDSEDTEGVHEVFSRNHAAPFSKVLTFLRRGPFELEAFYSDPQGVPYPEAKIGRFVVQNVSAQKDGEKSRVKVKVRVNTHGIFTISTASMVEKVPTEENEMSSEADMECLNQRPPENPDTDKNVQQDNSEAGTQPQVQTDAQQTSQSPPSPELTSEENKIPDADKANEKKVDQPPEAKKPKIKVVNVELPIEANLVWQLGKDLLNMYIETEGKMIMQDKLEKERNDAKNAVEEYVYEFRDKLCGPYEKFICEQDHQNFLRLLTETEDWLYEEGEDQAKQAYVDKLEELMKIGTPVKVRFQEAEERPKMFEELGQRLQHYAKIAADFRNKDEKYNHIDESEMKKVEKSVNEVMEWMNNVMNAQAKKSLDQDPVVRAQEIKTKIKELNNTCEPVVTQPKPKIESPKLERTPNGPNIDKKEEDLEDKNNFGAEPPHQNGECYPNEKNSVNMDLD
notes: mature; used at 2 uM; also called purified Hsp110
In the case of B1, the binding result was “binds”.
